Experimental data as given in publication PMC4081048.

Target: T1, GST-NHERF1-PDZ2 (PDZ2 domain of Na+/H+ exchanger regulatory factor 1 fused to GST)
T1 sequence (O14745 whole entry, species assumed, looked up): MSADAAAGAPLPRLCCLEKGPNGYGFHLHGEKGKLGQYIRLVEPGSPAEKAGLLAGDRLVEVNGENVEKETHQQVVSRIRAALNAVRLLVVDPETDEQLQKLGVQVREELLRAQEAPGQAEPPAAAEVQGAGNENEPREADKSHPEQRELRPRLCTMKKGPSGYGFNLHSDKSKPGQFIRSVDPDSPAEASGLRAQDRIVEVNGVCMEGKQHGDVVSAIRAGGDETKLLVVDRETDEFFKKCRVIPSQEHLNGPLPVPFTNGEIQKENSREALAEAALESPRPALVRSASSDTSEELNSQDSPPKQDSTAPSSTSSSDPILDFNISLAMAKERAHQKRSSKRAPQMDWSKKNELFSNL
Experiment: AlphaScreen or HTRF

| IC50 [nM] | Substance |
| --- | --- |
| 442 | Flag-ΔF508 CFTR (CFTR with deletion of phenylalanine at residue 508) (from UniProt P13569 1-1480) (natural protein) |
| 89.3 | Flag-WT CFTR (cystic fibrosis transmembrane-conductance regulator, wild type) (from UniProt P13569 1-1480) (natural protein) |
